According to patent US20210355194A1 (TWIST BIOSCIENCE, published 2021):

Legend:
[1] = target: T1, Acro SARS-CoV-2 (COVID-19) S1 protein (SARS-CoV-2, UniProt P0DTC2 16-685); assay: SPR
T1 construct: also called SARS-CoV-2 S1

[2] = target: SARS-CoV-2 spike on live SARS-CoV-2 virus (SARS-CoV-2, UniProt P0DTC2 14-1273); assay: cell-based or functional assay
[3] = target: T2, COVID S1 RBM Fc fusion (Antigen 2) (SARS-CoV-2, UniProt P0DTC2 437-508); assay: phage ELISA
T2 construct: domain: S1 RBM

[4] = target: T3, COVID S1 RBD Fc fusion (Antigen 1) (SARS-CoV-2, UniProt P0DTC2 319-541); assay: phage ELISA
T3 construct: domain: S1 RBD

[5] = target: SARS-CoV-2 membrane protein on expressing cells (SARS-CoV-2, UniProt P0DTC5 1-222)

B1: variant 6-42 (Fc fusion)
VHH: EVQLVESGGGLVQPGGSLRLSCAASGDTYGSYWMGWFRQAPGKEREFVAVITSGGSTNYADSVKGRFTISADNSKNTAYLQMNSLKPEDTAVYYCTHVQNSYYYAMDVWGQGTLVTVSS
- Kd [1]: 10.1 nM
- EC80 [2]: 0.734 µg/mL

B2: variant 5-38 (Fc fusion)
VHH: EVQLVESGGGLVQPGGSLRLSCAASGRTFSMHAMGWFRQAPGKERELVASISSQGRTNYADSVKGRFTISADNSKNTAYLQMNSLKPEDTAVYYCAAEVRNGSDYLPIDWGQGTLVTVSS
- EC80 [2]: 1.5 µg/mL

B3: variant 5-63 (Fc fusion)
VHH: EVQLVESGGGLVQPGGSLRLSCAASGFSLDYYDMGWFRQAPGKEREFVAALGWSGGSTDYADSVKGRFTISADNSKNTAYLQMNSLKPEDTAVYYCAAGNGGRYGIVERWGQGTLVTVSS
- Kd [1]: 10.5 nM
- EC80 [2]: 14.2 µg/mL

B4: variant 5-8 (Fc fusion)
VHH: EVQLVESGGGLVQPGGSLRLSCAASGRPFSEYTMGWFRQAPGKEREFVSSIHWGGRGTNYADSVKGRFTISADNSKNTAYLQMNSLKPEDTAVYYCAAELHSSDYTSPGAYAWGQGTLVTVSS
- EC80 [2]: 15.8 µg/mL

B5: variant 6-6 (Fc fusion)
VHH: EVQLVESGGGLVQPGGSLRLSCAASGTTLDYYAMGWFRQAPGKERELVAAISWSGGSTAYADSVKGRFTISADNSKNTAYLQMNSLKPEDTAVYYCAREDYYDSSGYSWGQGTLVTVSS
- Kd [1]: 6.4 nM
- EC80 [2]: 24.4 µg/mL

B6: variant 6-13 (Fc fusion)
VHH: EVQLVESGGGLVQPGGSLRLSCAASGLTFNDYAMGWFRQAPGKEREFVAHIPRSTYSPYYADSVKGRFTISADNSKNTAYLQMNSLKPEDTAVYYCAFLVGPQGVDHGAFDVWGQGTLVTVSS
- Kd [1]: 25.3 nM
- EC80 [2]: 25.7 µg/mL

B7: variant 6-24 (Fc fusion)
VHH: EVQLVESGGGLVQPGGSLRLSCAASGFTLDYYAMGWFRQAPGKEREFVAAINWSGDNTHYADSVKGRFTISADNSKNTAYLQMNSLKPEDTAVYYCARAPFYCTTTKCQDNYYYMDVWGQGTLVTVSS
- Kd [1]: 29.9 nM
- EC80 [2]: 31.4 µg/mL

B8: variant 6-32 (Fc fusion)
VHH: EVQLVESGGGLVQPGGSLRLSCAASGFTLDYYDMGWFRQAPGKEREFVALISWSGGSTYYADSVKGRFTISADNSKNTAYLQMNSLKPEDTAVYYCATDFYGWGTRERDAFDIWGQGTLVTVSS
- Kd [1]: 27.2 nM
- EC80 [2]: 60.6 µg/mL

B9: variant 6-22 (Fc fusion)
VHH: EVQLVESGGGLVQPGGSLRLSCAASGRTFSEVVMGWFRQAPGKEREFVATIHSSGSTSYADSVKGRFTISADNSKNTAYLQMNSLKPEDTAVYYCVRVTSDYSMDSWGQGTLVTVSS
- Kd [1]: 25.6 nM
- EC80 [2]: 103 µg/mL

B10: variant 6-82 (Fc fusion)
VHH: EVQLVESGGGLVQPGGSLRLSCAASGSSLDAYGMGWFRQAPGKEREFVAAISWGGGSIYYADSVKGRFTISADNSKNTAYLQMNSLKPEDTAVYYCARLSQGMVALDYWGQGTLVTVSS
- Kd [1]: 7.1 nM
- EC80 [2]: 108 µg/mL

B11: variant 5-32 (Fc fusion)
VHH: EVQLVESGGGLVQPGGSLRLSCAASGFTPDNYAMGWFRQAPGKEREFVAALGWSGVTTYHYYADSVKGRFTISADNSKNTAYLQMNSLKPEDTAVYYCASDESDAANWGQGTLVTVSS
- Kd [1]: 22.4 nM
- EC80 [2]: 180 µg/mL

B12: variant 6-91 (Fc fusion)
VHH: EVQLVESGGGLVQPGGSLRLSCAASGRTFGNYAMGWFRQAPGKEREFVASISSSGVSKHYADSVKGRFTISADNSKNTAYLQMNSLKPEDTAVYYCVRFGSSWARDLDQWGQGTLVTVSS
- EC80 [2]: 240 µg/mL

B13: variant 5-51 (Fc fusion)
VHH: EVQLVESGGGLVQPGGSLRLSCAASGRPNSINWMGWFRQAPGKERQFVATITPGGNTNYADSVKGRFTISADNSKNTAYLLMNSLKPEDTAVYYCAAAAGTTWYGTLYEYDWGQGTLVTVSS
- Kd [1]: 25.5 nM
- EC80 [2]: 388 µg/mL

B14: variant 2-1 (antibody, V domains shown)
VH: EVQLLESGGGLVQPGGSLRLSCAASGFTFSNYATDWVRQAPGKGLEWVSIISGSGGATYYADSVKGRFTISRDNSKNTLYLQMNSLRAEDTAVYYCAKGGYCSSDTCWWEYWLDPWGQGTLVTVSS
VL: DIQMTQSPSSLSASVGDRVTITCRASQSIHRFLNWYQQKPGKAPKLLIYAASNLHSGVPSRFSGSGSGTDFTLTISSLQPEDFATYYCQQSYGLPPTFGQGTKVEIK
- specificity ELISA, fold over background [3]: 1.5 fold over background
- specificity ELISA, percent binding relative to Acro S1 [3]: 3.9%
- specificity ELISA, fold over background [4]: 36.8 fold over background
- specificity ELISA, percent binding relative to Acro S1 [4]: 93.7%

B15: variant 3-10 (antibody, V domains shown)
VH: EVQLLESGGGLVQPGGSLRLSCAASGFTFRSHAMSWVRQAPGKGLEWVSSISGGGASTYYADSVKGRFTISRDNSKNTLYLQMNSLRAEDTAVYYCARVKYLTTSSGWPRPYFDNWGQGTLVTVSS
VL: DIQMTQSPSSLSASVGDRVTITCRASQSIRKYLNWYQQKPGKAPKLLIYASSTLQRGVPSRFSGSGSGTDFTLTISSLQPEDFATYYCQQSLSTPFTFGGGTKVEIK
- specificity ELISA, fold over background [3]: 1.1 fold over background
- specificity ELISA, percent binding relative to Acro S1 [3]: 93.3%
- specificity ELISA, fold over background [4]: 1.2 fold over background
- specificity ELISA, percent binding relative to Acro S1 [4]: 97.2%

B16: 10-56 (VHH)
VHH: EVQLVESGGGLVQPGGSLRLSCAASGHTFRNYGMGWFRQAPGKEREFVAAITSSGSTNYADSVKGRFTISADNSKNTAYLQMNSLKPEDTAVYYCATVPPPRRFLEWLPRRLTYTWGQGTLVTVSS
- MFI Ratio [5]: 1.39

B17: 9-2 (VHH)
VHH: EVQLVESGGGLVQPGGSLRLSCAASGSFSIAAMGWFRQAPGKEREFVATINYSGGGTYYADSVKGRFTISADNSKNTAYLQMNSLKPEDTAVYYCAAVNTFDESAYAAFACYDVVWGQGTLVTVSS
- MFI Ratio [5]: 1.3

B18: 10-2 (VHH)
VHH: EVQLVESGGGLVQPGGSLRLSCAASGGTFSSYSMGWFRQAPGKEREFVSAISWIIGSGGTTNYADSVKGRFTISADNSKNTAYLQMNSLKPEDTAVYYCTAGAGDSWGQGTLVTVSS
- MFI Ratio [5]: 1.25

B19: 10-60 (VHH)
VHH: EVQLVESGGGLVQPGGSLRLSCAASGIPASMYLGWFRQAPGKEREFVAAITSGGRTSYADSVKGRFTISADNSKNTAYLQMNSLKPEDTAVYYCAKRKKRGPLWFGGGGWGYWGQGTLVTVSS
- MFI Ratio [5]: 1.14

B20: 10-1 (VHH)
VHH: EVQLVESGGGLVQPGGSLRLSCAASGLSSPPFDDFPMGWFRQAPGKEREFVSSIYSDDGDSMYADSVKGRFTISADNSKNTAYLQMNSLKPEDTAVYYCARQTFDFWSASLGGNFWYFDLWGQGTLVTVSS
- MFI Ratio [5]: 1.08

B21: 10-6 (VHH)
VHH: EVQLVESGGGLVQPGGSLRLSCAASGTTLTFRIMGWFRQAPGKEREFVPAISSTGLASYTDSVKGRFTISADNSKNTAYLQMNSLKPEDTAVYYCSKDRAPNCFACCPNGFDVWGQGTLVTVSS
- MFI Ratio [5]: 1.08
